# Experimental data published in the supplement of paper PMC12042874.
# ± gives the uncertainty stated by the source.
# Assay: amyloid nucleation score (Sup35N fusion, yeast selection) (log enrichment); library NNK2; higher = more nucleation; inactive = no reads after selection
# Method in brief: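 For the nucleation score, DiMSum gave the log enrichment of output over input reads, centred on the mode score of non-aggregating sequences. Psi-negative yeast expressing Sup35N fused to peptides of 20 random codons were induced with 100 μM copper sulfate for 24 hours and grown 7 days at 30°C on medium lacking adenine and uracil. Input and output plasmid inserts were Illumina-sequenced, and sequences with under 100 input reads were excluded.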
row,Substance,amyloid nucleation score
1,DLGHLTLISKFKFNESSAEH,-0.221 ± 1.1
2,RMSRVEWIPHVDFYPTHGLI,-0.439 ± 0.63
3,EFSIHAGLM,0.222 ± 0.46
4,SSSWLCYTSFWYVNHSRRSL,8.051 ± 0.043
5,VSTGAWCYGLWSVLQGWERG,5.02 ± 0.082
6,GVRAGACLGNGSVYSSGGRF,inactive
7,ISCSKMRRFWHL,0.587 ± 0.29
8,VKHVIAHTRG,1.52 ± 0.38
9,FHCVVVYNNRQMCSVTKDSS,7.962 ± 0.031
10,CLCCYTIM,7.381 ± 0.044
11,PRCLDLLDIFV,0.072 ± 1.1
12,TVFLIDTYTYDTVFNTSRCR,3.76 ± 0.041
13,LLSTDESCSTLNIYCIYTPR,8.139 ± 0.045
14,PGNNMLFMWYHWGLGCNFLM,-0.059 ± 0.79
15,FEKEWYSGLCFARAVARGMR,2.97 ± 0.17
16,GHLRVFGVAKKLSTIMNLAR,-0.274 ± 0.45
17,FVECILASLWTRFEKIRMAC,-0.108 ± 1.1
18,ISVRPAQSASRPCLDLWLKA,1.55 ± 0.36
19,PERCYQTG,-0.251 ± 0.76
20,LDDPCSHYILGSGHDHVLRR,0.697 ± 0.81
21,LWGMGGAWEPERETLVV,-0.268 ± 0.63
22,GVVPQGMMTI,-0.701 ± 0.55
23,SRTRGTLDGS,0.241 ± 0.36
24,SGSGSTAILGKTSGHVCLAI,0.713 ± 0.58
25,MSNDRDVVKVWFFPYDPHQS,-0.378 ± 0.26

row,Substance,amyloid nucleation score
1,ESRHSSLFHHPE,0.119 ± 0.65
2,IRCCVQFIQLSQGNNVWVRS,6.07 ± 0.081
3,PGSLSLIINIKCTTAKDRTL,2.79 ± 0.13
4,SFFCMKQMLNFL,0.533 ± 0.35
5,SVTRRVSYRSYLVLVGEWKQ,0.901 ± 0.32
6,TEDVDL,1.5 ± 0.2
7,LYLSVPQYYFSCLFSMVEVQ,-1.07 ± 0.61
8,VRVHCLHLVYYYSQCPRYNN,-0.277 ± 1.1
9,SAVFLLRLCTQIKCMTVR,inactive
10,PWETRSNA,-0.012 ± 0.46
11,YFLGAFTYVFCACHSFCRYW,1.86 ± 0.15
12,PCRYSSKSNYTW,-0.507 ± 0.76
13,PSSISLTVYKSRMGEYWCKG,inactive
14,FVHKSCSAALTTLGTVAD,4.333 ± 0.042
15,TSRPMALQGYSGNSDDVTYV,0.445 ± 0.65
16,SDVKYIGMCSCQHSFIMMGM,0.372 ± 0.36
17,SQSHNIYQ,3.46 ± 0.14
18,YFVRFEDIGWTVSVHTGDSG,-0.063 ± 0.45
19,YTMMRFGPPPFETFVVKYGL,1.42 ± 0.35
20,VLFGLKYFGSAGIQMSTCDK,3.53 ± 0.066
21,CQPNLWARVCLVWCYW,3 ± 0.094
22,KCSSCEF,0.768 ± 0.47
23,SMLESNFRGFFYQ,2.56 ± 0.15
24,NSIIGCYRGFC,4.63 ± 0.092
25,NVERSFGAVGQVRIEEYARD,0.266 ± 1

row,Substance,amyloid nucleation score
1,RIVLLLNVYNTREM,5.04 ± 0.1
2,FRFCHCLEFQVY,0.126 ± 0.5
3,LLSQKRGCHVSGHIGVEA,-0.218 ± 0.31
4,LNTSSYFVIDDFWIIFRRCR,-0.814 ± 0.55
5,LVGSVWFEISFDSQMYSFG,inactive
6,VFYRASRSFKQSVRAPVGLR,-0.675 ± 0.55
7,LRFSWDKISFVVRWLVVGLT,0.138 ± 0.19
8,ILGVRYVSCSGSLGNWAQRG,4.87 ± 0.098
9,SSSSPHLDNLLGSGRLEIPS,0.56 ± 0.56
10,HSYITG,0.018 ± 0.19
11,SRRDGCGAPSKTSNWA,0.64 ± 0.8
12,VGGIWE,-0.427 ± 0.45
13,MHEEP,1.29 ± 0.23
14,IQEVRVACCWLIFRGCIRTA,4.1 ± 0.12
15,EEWNRRANMGFLNYFETHGG,-1.14 ± 1
16,ILTWVAHILLP,3.72 ± 0.072
17,SYKMGEFTTFSLSRICK,1.12 ± 0.27
18,SWQDSLYRAQCFLCSWSKTV,-0.575 ± 0.34
19,YEVREFSCHGINIKMEGIYC,1.48 ± 0.2
20,AGTFKRWPLGYECFVSERIG,-0.803 ± 0.49
21,HLCKLSYI,1.2 ± 0.33
22,STCVGEYLHCSLSCAGMVLL,6.593 ± 0.049
23,MSVSLLSDIN,-0.497 ± 1
24,QLPAHFFGLFCLFP,-1.41 ± 0.73
25,VVLRELRIYIMNVWDPRGTL,-0.998 ± 0.62

row,Substance,amyloid nucleation score
1,RANKYVASRFVITFKVACFE,0.092 ± 1.1
2,DGLARAYAARM,1.53 ± 0.29
3,SSTIITSLTHFCSTGDWEVV,-0.434 ± 0.24
4,TFSWMTPNWRSHYMLDCDPG,-0.502 ± 0.79
5,STWPIGPSCSLIVCREDCET,1.45 ± 0.34
6,VRFLVISINAYSVDVPHISI,-1.63 ± 1.1
7,FYLNRKRVYLSDGCRAFR,0.252 ± 0.51
8,VFLTGCIPR,0.052 ± 0.37
9,LSLRDVGGLLSNLSIMCGKG,0.144 ± 0.25
10,PSGNQELLGTMTWIRKVTQS,-0.86 ± 0.34
11,TVTSLRSLPIMSMPCRETTD,1.1 ± 0.25
12,TVWNHVTGLDKNSRCVTQSS,0.509 ± 0.81
13,AKLRHWDCHFTR,0.405 ± 0.2
14,LNHPTGCEYRWEARPNLCEK,-0.553 ± 0.63
15,CNNCYALYHDGV,-0.396 ± 0.39
16,MTQRHFLVDTGRKAR,1.22 ± 0.48
17,WFSVVILLNSTMEYYQYLV,-0.128 ± 0.45
18,MGAYEGDRVQMLEHADFRKN,-0.355 ± 0.74
19,VRGYCGFALQLVRCEWRICS,7.272 ± 0.06
20,VVTHYLQIYPRFSMHFFVSV,1.33 ± 0.22
21,CVYEIPKM,3.09 ± 0.048
22,VSVIGKFSFHPKRMRG,-0.481 ± 0.39
23,AGAHVVKAIHFSLYGNEGLT,0.6 ± 0.74
24,PYVMCLNDYPSSKDCFQIVS,-0.619 ± 0.27
25,MGMFKTCVHLNCVYR,5.229 ± 0.05

row,Substance,amyloid nucleation score
1,CCQSSEYCWCAWQTSVTSVG,0.404 ± 0.8
2,LTFPA,-0.206 ± 1.1
3,GTHPCLQVCDDRGDWLLA,0.868 ± 0.29
4,LNTVYCN,-1.09 ± 0.47
5,DSWSAVYTNISELAIGGCHG,-0.055 ± 1.1
6,GGMGHVFITCWGYVYIDYLV,7.207 ± 0.025
7,VYKYI,-0.578 ± 1.1
8,WVLDVSFTVVFKMIHGVVSL,3.9 ± 0.14
9,YIIWLI,inactive
10,VDMGGDPWMVNRCELSLRLW,0.881 ± 0.43
11,FYGQMRSKVLCLFH,-1.02 ± 0.76
12,TAHHITSVWYVVLVRLRFRQ,1.76 ± 0.35
13,AWYKFIITMPFIFKSDITST,-0.454 ± 0.54
14,RIQDLMVLTEGYRRDVIGPG,0.533 ± 0.56
15,KDCLTVVMLSLVHLRPCY,inactive
16,VIEIWSN,-0.531 ± 1.1
17,SRCVCMFTEIPATAFPMKVR,-0.94 ± 0.64
18,VRPMLGGSNRLHFSMVFDDD,5.964 ± 0.059
19,SYGLLKYGI,-0.891 ± 0.35
20,YMNQERVQTVFDSRICFRLH,-0.246 ± 0.35
21,KHSIMRRKRGFPATKR,0.722 ± 0.43
22,SMPPRLQSKLPRDFSAQSVK,4.63 ± 0.1
23,AMWFN,0.932 ± 0.47
24,YDGAIDITTGLFLCFWVCTV,3.96 ± 0.047
25,KSMFRTNLYIIILQSSTRFQ,-1.06 ± 0.76

row,Substance,amyloid nucleation score
1,SVCLSPYLSLNYFYWWNSKR,8.377 ± 0.046
2,WNKYLCFKFRFYLPFVNYWL,inactive
3,VGFVCDLTGMNMGRFFKCGN,inactive
4,RLSSHTVMAWVSCNWGDFTV,9.919 ± 0.065
5,TAVERVSTR,4.94 ± 0.08
6,PAVDRIFSRLCTYSGQFIPQ,4.66 ± 0.061
7,NPFYYTGLTIPCFVYHRIKS,-0.508 ± 0.31
8,FLIKAKGFYSSLLATGGIEK,inactive
9,ACSQLSYWTFHSPWP,4.07 ± 0.072
10,IYKQLMVCHKCSDSAVTGYQ,6.14 ± 0.075
11,KTNHEELKA,inactive
12,TLLSTEMHDYKLLARQRCHP,1.24 ± 0.38
13,FMRQMLLVLMPWCQRRWACL,-0.382 ± 0.32
14,TYIRDRHIVYWGHTGSFIYM,1.63 ± 0.18
15,RLYSFCGIN,1.68 ± 0.093
16,GMRIFNYKNRDYWMACTAMT,inactive
17,YLLTLFGPRMTD,-1.45 ± 0.76
18,EMCGATRG,3.28 ± 0.085
19,SYSPSVQ,-0.043 ± 0.55
20,INCSAFNHCIYSSPT,2.82 ± 0.082
21,NSNLNYPECWEEWTLNHFTD,inactive
22,LRKHFWLGCEGAWLVFG,4.81 ± 0.08
23,ICTALGGWWSKEVMSADMFL,0.811 ± 0.67
24,GMVAICFYHM,6.05 ± 0.046
25,PIARN,-0.47 ± 1

row,Substance,amyloid nucleation score
1,NSVCSTLKHLSNLGSIDIQH,-0.363 ± 1.1
2,GRRFLYKPAKTWYVVWHRGL,0.229 ± 0.49
3,LCLELFKQSVQFGLC,0.325 ± 0.35
4,ANMLRWLNFETFAVSRNLAI,0.009 ± 0.74
5,SFGYPPVCLLFSHLHRRFLL,0.237 ± 1
6,RYRRFVIGVQWQRLSRG,-0.19 ± 1.1
7,KYSNVTCWFSDHLGWRFHTF,inactive
8,GLPRMRSRYTYRGKYVCMCM,1.12 ± 0.36
9,TGLYFLNSWIIMLRL,4.434 ± 0.033
10,LSEFYRLRYYTGCQ,1.05 ± 0.31
11,RSFIGDNYISLRC,-0.184 ± 0.29
12,QWTHERSEPWHCSDVRSFIE,5.757 ± 0.044
13,NPHGMLSTRSGSVFMPTIDT,-0.742 ± 1
14,QSVQFRWRLCLAGFVGTGWR,3.06 ± 0.089
15,IGMCLILRNPYIVLSDRWSS,0.308 ± 0.39
16,SKDLSISQWSLGWLCHVWHT,-0.153 ± 0.79
17,FHTNCYKIMMSGRHFHVSFD,8.932 ± 0.046
18,VFPQLCDVSLE,-0.476 ± 1.1
19,FWGIMNSILTETLL,-1.53 ± 1.1
20,CHKSACCKILVDDIALFN,-0.419 ± 0.32
21,AILLGLWCCTWFREALACLA,1.04 ± 0.29
22,PGYGPLTMGGS,1.35 ± 0.24
